Biological target: SNARE (H3) domain of syntaxin-1a (aa 180–262) (rat, UniProt P32851 180-262)
Experiment: assembly of purified monomers and anion-exchange chromatography

SNARE (H3) domain of syntaxin-1a (aa 180–262), sequence (P32851 180-262): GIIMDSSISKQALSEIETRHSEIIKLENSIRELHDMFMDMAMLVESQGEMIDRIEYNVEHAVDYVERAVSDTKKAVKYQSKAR

Q: Does NVDKVLERDQKLSELDDRADALQAGASQFETSAAKLKRKYWWKNLKMM (domain or fragment) [Syb49–96] bind?
A: binds
